Test results from patent publication US20260167699A1 (Chugai, published 2026).

The binders below were run against T1, FcγRIIIa extracellular domain, C-terminal His tag (human, UniProt P08637 17-208) (assay: SPR, binding activity relative to GpH7-A5/GpH7-B3/GpL16-k0 (=100)).
T1 construct: extracellular domain; also called 3a
T1 sequence (P08637 other isoform, or with tags, fused parts or gaps): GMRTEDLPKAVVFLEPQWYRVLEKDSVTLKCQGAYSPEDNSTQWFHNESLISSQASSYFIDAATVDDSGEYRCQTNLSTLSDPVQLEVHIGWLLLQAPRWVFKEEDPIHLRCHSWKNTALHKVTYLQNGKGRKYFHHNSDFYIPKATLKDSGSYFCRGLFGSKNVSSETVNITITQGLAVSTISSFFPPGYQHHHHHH

He/Con 3a [%]	Binder
87.6	GpH7-A5/GpH7-B3 variant P271_12R/GpL16-k0 (antibody, human IgG1, kappa, He Ab; copies: 1 + 1 + 2) heavy 1: not shown heavy 2: not shown light: DIVMTQSPLSLPVTPGEPASISCQASESLVHSNRNTYLHWYLQKPGQSPQLLIYKVSNRFSGVPDRFSGSGSGTDFTLKISRVEAEDVGVYYCSQNTHVPPTFGQGTKVEIERTVAAPSVFIFPPSDEQLKSGTASVVCLLNNFYPREAKVQWKVDNALQSGNSQESVTEQDSKDSTYSLSSTLTLSKADYEKHKVYACEVTHQGLSSPVTKSFNRGEC
82.5	GpH7-A5/GpH7-B3 variant P331_02A/GpL16-k0 (antibody, human IgG1, kappa, He Ab; copies: 1 + 1 + 2) heavy 1: not shown heavy 2: not shown light: DIVMTQSPLSLPVTPGEPASISCQASESLVHSNRNTYLHWYLQKPGQSPQLLIYKVSNRFSGVPDRFSGSGSGTDFTLKISRVEAEDVGVYYCSQNTHVPPTFGQGTKVEIERTVAAPSVFIFPPSDEQLKSGTASVVCLLNNFYPREAKVQWKVDNALQSGNSQESVTEQDSKDSTYSLSSTLTLSKADYEKHKVYACEVTHQGLSSPVTKSFNRGEC
66	GpH7-A5/GpH7-B3 variant P331_08L/GpL16-k0 (antibody, human IgG1, kappa, He Ab; copies: 1 + 1 + 2) heavy 1: not shown heavy 2: not shown light: DIVMTQSPLSLPVTPGEPASISCQASESLVHSNRNTYLHWYLQKPGQSPQLLIYKVSNRFSGVPDRFSGSGSGTDFTLKISRVEAEDVGVYYCSQNTHVPPTFGQGTKVEIERTVAAPSVFIFPPSDEQLKSGTASVVCLLNNFYPREAKVQWKVDNALQSGNSQESVTEQDSKDSTYSLSSTLTLSKADYEKHKVYACEVTHQGLSSPVTKSFNRGEC
59.2	GpH7-A5/GpH7-B3 variant P271_14T/GpL16-k0 (antibody, human IgG1, kappa, He Ab; copies: 1 + 1 + 2) heavy 1: not shown heavy 2: not shown light: DIVMTQSPLSLPVTPGEPASISCQASESLVHSNRNTYLHWYLQKPGQSPQLLIYKVSNRFSGVPDRFSGSGSGTDFTLKISRVEAEDVGVYYCSQNTHVPPTFGQGTKVEIERTVAAPSVFIFPPSDEQLKSGTASVVCLLNNFYPREAKVQWKVDNALQSGNSQESVTEQDSKDSTYSLSSTLTLSKADYEKHKVYACEVTHQGLSSPVTKSFNRGEC
70.3	GpH7-A5/GpH7-B3 variant P271_16H/GpL16-k0 (antibody, human IgG1, kappa, He Ab; copies: 1 + 1 + 2) heavy 1: not shown heavy 2: not shown light: DIVMTQSPLSLPVTPGEPASISCQASESLVHSNRNTYLHWYLQKPGQSPQLLIYKVSNRFSGVPDRFSGSGSGTDFTLKISRVEAEDVGVYYCSQNTHVPPTFGQGTKVEIERTVAAPSVFIFPPSDEQLKSGTASVVCLLNNFYPREAKVQWKVDNALQSGNSQESVTEQDSKDSTYSLSSTLTLSKADYEKHKVYACEVTHQGLSSPVTKSFNRGEC
70.7	GpH7-A5/GpH7-B3 variant P331_04F/GpL16-k0 (antibody, human IgG1, kappa, He Ab; copies: 1 + 1 + 2) heavy 1: not shown heavy 2: not shown light: DIVMTQSPLSLPVTPGEPASISCQASESLVHSNRNTYLHWYLQKPGQSPQLLIYKVSNRFSGVPDRFSGSGSGTDFTLKISRVEAEDVGVYYCSQNTHVPPTFGQGTKVEIERTVAAPSVFIFPPSDEQLKSGTASVVCLLNNFYPREAKVQWKVDNALQSGNSQESVTEQDSKDSTYSLSSTLTLSKADYEKHKVYACEVTHQGLSSPVTKSFNRGEC
80.9	GpH7-A5/GpH7-B3 variant P331_13S/GpL16-k0 (antibody, human IgG1, kappa, He Ab; copies: 1 + 1 + 2) heavy 1: not shown heavy 2: not shown light: DIVMTQSPLSLPVTPGEPASISCQASESLVHSNRNTYLHWYLQKPGQSPQLLIYKVSNRFSGVPDRFSGSGSGTDFTLKISRVEAEDVGVYYCSQNTHVPPTFGQGTKVEIERTVAAPSVFIFPPSDEQLKSGTASVVCLLNNFYPREAKVQWKVDNALQSGNSQESVTEQDSKDSTYSLSSTLTLSKADYEKHKVYACEVTHQGLSSPVTKSFNRGEC
61.8	GpH7-A5/GpH7-B3 variant P331_11K/GpL16-k0 (antibody, human IgG1, kappa, He Ab; copies: 1 + 1 + 2) heavy 1: not shown heavy 2: not shown light: DIVMTQSPLSLPVTPGEPASISCQASESLVHSNRNTYLHWYLQKPGQSPQLLIYKVSNRFSGVPDRFSGSGSGTDFTLKISRVEAEDVGVYYCSQNTHVPPTFGQGTKVEIERTVAAPSVFIFPPSDEQLKSGTASVVCLLNNFYPREAKVQWKVDNALQSGNSQESVTEQDSKDSTYSLSSTLTLSKADYEKHKVYACEVTHQGLSSPVTKSFNRGEC
84.6	GpH7-A5/GpH7-B3 variant P271_19Q/GpL16-k0 (antibody, human IgG1, kappa, He Ab; copies: 1 + 1 + 2) heavy 1: not shown heavy 2: not shown light: DIVMTQSPLSLPVTPGEPASISCQASESLVHSNRNTYLHWYLQKPGQSPQLLIYKVSNRFSGVPDRFSGSGSGTDFTLKISRVEAEDVGVYYCSQNTHVPPTFGQGTKVEIERTVAAPSVFIFPPSDEQLKSGTASVVCLLNNFYPREAKVQWKVDNALQSGNSQESVTEQDSKDSTYSLSSTLTLSKADYEKHKVYACEVTHQGLSSPVTKSFNRGEC
79.8	GpH7-A5/GpH7-B3 variant P271_13S/GpL16-k0 (antibody, human IgG1, kappa, He Ab; copies: 1 + 1 + 2) heavy 1: not shown heavy 2: not shown light: DIVMTQSPLSLPVTPGEPASISCQASESLVHSNRNTYLHWYLQKPGQSPQLLIYKVSNRFSGVPDRFSGSGSGTDFTLKISRVEAEDVGVYYCSQNTHVPPTFGQGTKVEIERTVAAPSVFIFPPSDEQLKSGTASVVCLLNNFYPREAKVQWKVDNALQSGNSQESVTEQDSKDSTYSLSSTLTLSKADYEKHKVYACEVTHQGLSSPVTKSFNRGEC
66.9	GpH7-A5/GpH7-B3 variant P331_03V/GpL16-k0 (antibody, human IgG1, kappa, He Ab; copies: 1 + 1 + 2) heavy 1: not shown heavy 2: not shown light: DIVMTQSPLSLPVTPGEPASISCQASESLVHSNRNTYLHWYLQKPGQSPQLLIYKVSNRFSGVPDRFSGSGSGTDFTLKISRVEAEDVGVYYCSQNTHVPPTFGQGTKVEIERTVAAPSVFIFPPSDEQLKSGTASVVCLLNNFYPREAKVQWKVDNALQSGNSQESVTEQDSKDSTYSLSSTLTLSKADYEKHKVYACEVTHQGLSSPVTKSFNRGEC
52.7	GpH7-A5/GpH7-B3 variant P329_10E/GpL16-k0 (antibody, human IgG1, kappa, He Ab; copies: 1 + 1 + 2) heavy 1: not shown heavy 2: not shown light: DIVMTQSPLSLPVTPGEPASISCQASESLVHSNRNTYLHWYLQKPGQSPQLLIYKVSNRFSGVPDRFSGSGSGTDFTLKISRVEAEDVGVYYCSQNTHVPPTFGQGTKVEIERTVAAPSVFIFPPSDEQLKSGTASVVCLLNNFYPREAKVQWKVDNALQSGNSQESVTEQDSKDSTYSLSSTLTLSKADYEKHKVYACEVTHQGLSSPVTKSFNRGEC
68.7	GpH7-A5/GpH7-B3 variant P331_10E/GpL16-k0 (antibody, human IgG1, kappa, He Ab; copies: 1 + 1 + 2) heavy 1: not shown heavy 2: not shown light: DIVMTQSPLSLPVTPGEPASISCQASESLVHSNRNTYLHWYLQKPGQSPQLLIYKVSNRFSGVPDRFSGSGSGTDFTLKISRVEAEDVGVYYCSQNTHVPPTFGQGTKVEIERTVAAPSVFIFPPSDEQLKSGTASVVCLLNNFYPREAKVQWKVDNALQSGNSQESVTEQDSKDSTYSLSSTLTLSKADYEKHKVYACEVTHQGLSSPVTKSFNRGEC
55.2	GpH7-A5/GpH7-B3 variant P329_02A/GpL16-k0 (antibody, human IgG1, kappa, He Ab; copies: 1 + 1 + 2) heavy 1: not shown heavy 2: not shown light: DIVMTQSPLSLPVTPGEPASISCQASESLVHSNRNTYLHWYLQKPGQSPQLLIYKVSNRFSGVPDRFSGSGSGTDFTLKISRVEAEDVGVYYCSQNTHVPPTFGQGTKVEIERTVAAPSVFIFPPSDEQLKSGTASVVCLLNNFYPREAKVQWKVDNALQSGNSQESVTEQDSKDSTYSLSSTLTLSKADYEKHKVYACEVTHQGLSSPVTKSFNRGEC
71.6	GpH7-A5/GpH7-B3 variant P331_09D/GpL16-k0 (antibody, human IgG1, kappa, He Ab; copies: 1 + 1 + 2) heavy 1: not shown heavy 2: not shown light: DIVMTQSPLSLPVTPGEPASISCQASESLVHSNRNTYLHWYLQKPGQSPQLLIYKVSNRFSGVPDRFSGSGSGTDFTLKISRVEAEDVGVYYCSQNTHVPPTFGQGTKVEIERTVAAPSVFIFPPSDEQLKSGTASVVCLLNNFYPREAKVQWKVDNALQSGNSQESVTEQDSKDSTYSLSSTLTLSKADYEKHKVYACEVTHQGLSSPVTKSFNRGEC
77.8	GpH7-A5/GpH7-B3 variant P271_20W/GpL16-k0 (antibody, human IgG1, kappa, He Ab; copies: 1 + 1 + 2) heavy 1: not shown heavy 2: not shown light: DIVMTQSPLSLPVTPGEPASISCQASESLVHSNRNTYLHWYLQKPGQSPQLLIYKVSNRFSGVPDRFSGSGSGTDFTLKISRVEAEDVGVYYCSQNTHVPPTFGQGTKVEIERTVAAPSVFIFPPSDEQLKSGTASVVCLLNNFYPREAKVQWKVDNALQSGNSQESVTEQDSKDSTYSLSSTLTLSKADYEKHKVYACEVTHQGLSSPVTKSFNRGEC
62.7	GpH7-A5/GpH7-B3 variant P271_15Y/GpL16-k0 (antibody, human IgG1, kappa, He Ab; copies: 1 + 1 + 2) heavy 1: not shown heavy 2: not shown light: DIVMTQSPLSLPVTPGEPASISCQASESLVHSNRNTYLHWYLQKPGQSPQLLIYKVSNRFSGVPDRFSGSGSGTDFTLKISRVEAEDVGVYYCSQNTHVPPTFGQGTKVEIERTVAAPSVFIFPPSDEQLKSGTASVVCLLNNFYPREAKVQWKVDNALQSGNSQESVTEQDSKDSTYSLSSTLTLSKADYEKHKVYACEVTHQGLSSPVTKSFNRGEC
68.4	GpH7-A5/GpH7-B3 variant P331_06M/GpL16-k0 (antibody, human IgG1, kappa, He Ab; copies: 1 + 1 + 2) heavy 1: not shown heavy 2: not shown light: DIVMTQSPLSLPVTPGEPASISCQASESLVHSNRNTYLHWYLQKPGQSPQLLIYKVSNRFSGVPDRFSGSGSGTDFTLKISRVEAEDVGVYYCSQNTHVPPTFGQGTKVEIERTVAAPSVFIFPPSDEQLKSGTASVVCLLNNFYPREAKVQWKVDNALQSGNSQESVTEQDSKDSTYSLSSTLTLSKADYEKHKVYACEVTHQGLSSPVTKSFNRGEC
52.5	GpH7-A5/GpH7-B3 variant P329_09D/GpL16-k0 (antibody, human IgG1, kappa, He Ab; copies: 1 + 1 + 2) heavy 1: not shown heavy 2: not shown light: DIVMTQSPLSLPVTPGEPASISCQASESLVHSNRNTYLHWYLQKPGQSPQLLIYKVSNRFSGVPDRFSGSGSGTDFTLKISRVEAEDVGVYYCSQNTHVPPTFGQGTKVEIERTVAAPSVFIFPPSDEQLKSGTASVVCLLNNFYPREAKVQWKVDNALQSGNSQESVTEQDSKDSTYSLSSTLTLSKADYEKHKVYACEVTHQGLSSPVTKSFNRGEC
60.4	GpH7-A5/GpH7-B3 variant P331_07I/GpL16-k0 (antibody, human IgG1, kappa, He Ab; copies: 1 + 1 + 2) heavy 1: not shown heavy 2: not shown light: DIVMTQSPLSLPVTPGEPASISCQASESLVHSNRNTYLHWYLQKPGQSPQLLIYKVSNRFSGVPDRFSGSGSGTDFTLKISRVEAEDVGVYYCSQNTHVPPTFGQGTKVEIERTVAAPSVFIFPPSDEQLKSGTASVVCLLNNFYPREAKVQWKVDNALQSGNSQESVTEQDSKDSTYSLSSTLTLSKADYEKHKVYACEVTHQGLSSPVTKSFNRGEC
94	GpH7-A5/GpH7-B3 variant P271_18N/GpL16-k0 (antibody, human IgG1, kappa, He Ab; copies: 1 + 1 + 2) heavy 1: not shown heavy 2: not shown light: DIVMTQSPLSLPVTPGEPASISCQASESLVHSNRNTYLHWYLQKPGQSPQLLIYKVSNRFSGVPDRFSGSGSGTDFTLKISRVEAEDVGVYYCSQNTHVPPTFGQGTKVEIERTVAAPSVFIFPPSDEQLKSGTASVVCLLNNFYPREAKVQWKVDNALQSGNSQESVTEQDSKDSTYSLSSTLTLSKADYEKHKVYACEVTHQGLSSPVTKSFNRGEC
67.8	GpH7-A5/GpH7-B3 variant P331_14T/GpL16-k0 (antibody, human IgG1, kappa, He Ab; copies: 1 + 1 + 2) heavy 1: not shown heavy 2: not shown light: DIVMTQSPLSLPVTPGEPASISCQASESLVHSNRNTYLHWYLQKPGQSPQLLIYKVSNRFSGVPDRFSGSGSGTDFTLKISRVEAEDVGVYYCSQNTHVPPTFGQGTKVEIERTVAAPSVFIFPPSDEQLKSGTASVVCLLNNFYPREAKVQWKVDNALQSGNSQESVTEQDSKDSTYSLSSTLTLSKADYEKHKVYACEVTHQGLSSPVTKSFNRGEC
